Where two headings read alike, the source gives them in different places.
How the values were obtained:
[1] = target: SCARECROW (SCR)-mCherry translational fusion (SCR:SCR-mCherry) (Arabidopsis) (UniProt Q9M384); test: Cross-Correlation Number and Brightness
[2] = target: SCARECROW (SCR)-mCherry translational fusion (SCR:SCR-mCherry) (Arabidopsis) (UniProt Q9M384); test: Cross-Correlation Number and Brightness; remark: listed apart in the source
[3] = target: T1, SCARECROW (SCR)-GFP translational fusion (SCR:SCR-GFP) (Arabidopsis), Q9M384; test: Number and Brightness; details: remark: other sources report otherwise
T1 chain: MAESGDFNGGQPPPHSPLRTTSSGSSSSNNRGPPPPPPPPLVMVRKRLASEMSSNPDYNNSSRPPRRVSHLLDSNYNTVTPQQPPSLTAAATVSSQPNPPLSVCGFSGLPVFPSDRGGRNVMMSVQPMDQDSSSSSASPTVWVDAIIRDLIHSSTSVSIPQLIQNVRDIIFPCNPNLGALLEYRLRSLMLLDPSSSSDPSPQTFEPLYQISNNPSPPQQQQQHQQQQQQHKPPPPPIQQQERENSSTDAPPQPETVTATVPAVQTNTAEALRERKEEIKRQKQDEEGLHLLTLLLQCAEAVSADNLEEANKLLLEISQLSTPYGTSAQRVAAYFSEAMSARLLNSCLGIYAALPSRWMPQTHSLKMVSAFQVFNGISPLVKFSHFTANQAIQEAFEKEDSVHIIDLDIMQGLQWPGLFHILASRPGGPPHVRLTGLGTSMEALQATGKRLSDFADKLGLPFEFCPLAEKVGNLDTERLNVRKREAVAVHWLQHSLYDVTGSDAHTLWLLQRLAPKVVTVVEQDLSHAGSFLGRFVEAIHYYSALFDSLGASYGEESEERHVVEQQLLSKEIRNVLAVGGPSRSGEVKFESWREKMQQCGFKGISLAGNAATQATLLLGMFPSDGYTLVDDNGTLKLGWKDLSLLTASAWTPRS

[4] = target: T1, SCARECROW (SCR)-GFP translational …; test: Number and Brightness; details: remark: other sources report otherwise
[5] = target: SHORTROOT (SHR)-GFP translational fusion (SHR:SHR-GFP) (Arabidopsis) (UniProt Q9SZF7); test: Number and Brightness

Q: With “SHORTROOT (SHR)-GFP translational fusion (SHR:SHR-GFP) (from UniProt Q9SZF7 1-531) (natural protein)” as the molecule, how does the percent of SHR-SCR complexes that are 1 SHR: 1 SCR [1] read?
A: Its percent of SHR-SCR complexes that are 1 SHR: 1 SCR is greater than 90%.

Q: And the percent of SHR-SCR complexes that are 1 SHR: 2 SCR [1]?
A: Its percent of SHR-SCR complexes that are 1 SHR: 2 SCR is 7%.

Q: What about the binding score of the 2 SHR: 2 SCR complex [2] of the same molecule?
A: Its binding score of the 2 SHR: 2 SCR complex is 1.

Q: What about the percent of SHR-SCR complexes that are 1 SHR: 1 SCR [2] of the same molecule?
A: Its percent of SHR-SCR complexes that are 1 SHR: 1 SCR is greater than 90%.

Q: What about the percent of SHR-SCR complexes that are 1 SHR: 2 SCR [2] of the same molecule?
A: Its percent of SHR-SCR complexes that are 1 SHR: 2 SCR is less than 5%.

Q: What about the percent of SHR-SCR complexes that are 2 SHR: 1 SCR [2] of the same molecule?
A: Its percent of SHR-SCR complexes that are 2 SHR: 1 SCR is 7%.

Q: And the percent of SHR-SCR complexes that are 2 SHR: 2 SCR [2]?
A: The percent of SHR-SCR complexes that are 2 SHR: 2 SCR was less than 1%.

B1: SCARECROW (SCR)-GFP translational fusion (SCR:SCR-GFP), Q9M384 1-653 (natural protein)
chain: MAESGDFNGGQPPPHSPLRTTSSGSSSSNNRGPPPPPPPPLVMVRKRLASEMSSNPDYNNSSRPPRRVSHLLDSNYNTVTPQQPPSLTAAATVSSQPNPPLSVCGFSGLPVFPSDRGGRNVMMSVQPMDQDSSSSSASPTVWVDAIIRDLIHSSTSVSIPQLIQNVRDIIFPCNPNLGALLEYRLRSLMLLDPSSSSDPSPQTFEPLYQISNNPSPPQQQQQHQQQQQQHKPPPPPIQQQERENSSTDAPPQPETVTATVPAVQTNTAEALRERKEEIKRQKQDEEGLHLLTLLLQCAEAVSADNLEEANKLLLEISQLSTPYGTSAQRVAAYFSEAMSARLLNSCLGIYAALPSRWMPQTHSLKMVSAFQVFNGISPLVKFSHFTANQAIQEAFEKEDSVHIIDLDIMQGLQWPGLFHILASRPGGPPHVRLTGLGTSMEALQATGKRLSDFADKLGLPFEFCPLAEKVGNLDTERLNVRKREAVAVHWLQHSLYDVTGSDAHTLWLLQRLAPKVVTVVEQDLSHAGSFLGRFVEAIHYYSALFDSLGASYGEESEERHVVEQQLLSKEIRNVLAVGGPSRSGEVKFESWREKMQQCGFKGISLAGNAATQATLLLGMFPSDGYTLVDDNGTLKLGWKDLSLLTASAWTPRS
Q: Which percent homodimer [3] does the source give for B1 here?
A: Its percent homodimer is 17.3%.

Q: And the stoichiometry N [3]?
A: The stoichiometry N was 2.

Q: What about the percent homodimer [4] of the same molecule?
A: Its percent homodimer is 6.6%.

B2: SHORTROOT (SHR)-GFP translational fusion (SHR:SHR-GFP) (natural protein)
chain: MDTLFRLVSLQQQQQSDSIITNQSSLSRTSTTTTGSPQTAYHYNFPQNDVVEECFNFFMDEEDLSSSSSHHNHHNHNNPNTYYSPFTTPTQYHPATSSTPSSTAAAAALASPYSSSGHHNDPSAFSIPQTPPSFDFSANAKWADSVLLEAARAFSDKDTARAQQILWTLNELSSPYGDTEQKLASYFLQALFNRMTGSGERCYRTMVTAAATEKTCSFESTRKTVLKFQEVSPWATFGHVAANGAILEAVDGEAKIHIVDISSTFCTQWPTLLEALATRSDDTPHLRLTTVVVANKFVNDQTASHRMMKEIGNRMEKFARLMGVPFKFNIIHHVGDLSEFDLNELDVKPDEVLAINCVGAMHGIASRGSPRDAVISSFRRLRPRIVTVVEEEADLVGEEEGGFDDEFLRGFGECLRWFRVCFESWEESFPRTSNERLMLERAAGRAIVDLVACEPSDSTERRETARKWSRRMRNSGFGAVGYSDEVADDVRALLRRYKEGVWSMVQCPDAAGIFLCWRDQPVVWASAWRPT
Q: For B2, which percent homodimer without m4 (scr4 mutant) [5] is on record?
A: Its percent homodimer without m4 (scr4 mutant) is less than 1%.
